The record followed here is publication PMC7327165 (mBio, 2020).

The chains are these.
B1: N12-i3 mAb (antibody, V domains shown)
VH: QVQLVQSGAEVKKPGSSVRVSCKASGGSFSRYTVNWVRQAPGQGLEWMARFIPIFNMPDYAPKFQGRITITADESTSTAYLELSSLTSDDTAVYYCASRQHHEYFQEWGQGTLVTVSS
VL: EIVLTQSPGTLSMSPGERATLSCRASRTVSSSNLAWYQQKPGQAPRLLIYDVSSRATGIPDRFSGRGSGTDFTLTISRLEPEDFAVYYCQQYGTSPLTFGGGTKVEIK
B2: CH55 mAb (antibody, V domains shown)
VH: QVQLVQSGAEVKKPGASVKVSCKASGYIFISYFMHWVRQAPGQGLEWMGIINPSSGDTRYAQKFQGRVTMTRDTSTNTVYMELSSLRSDDTAVYYCARRPGGLERHNWLDPWGQGTLVTVSS
VL: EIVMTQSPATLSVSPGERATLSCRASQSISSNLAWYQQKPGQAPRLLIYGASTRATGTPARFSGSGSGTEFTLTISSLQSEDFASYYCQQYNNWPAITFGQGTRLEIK
B3: CH54 mAb (antibody, V domains shown)
VH: QVQLVQSGPEVKKPGTSMKISCKASGFTFTRSTMQWVRQARGQRLEWIGWIVVGSGNTNYAQKFQERVTITRDMSTSTAYMELSSLRSEDTAVYYCAAAPVGPTSSDYWGQGTLVTVSS
VL: DIQMTQSPSSLSASVGDRVTITCRASQSIINYLNWYQQKPGRAPKLLIYAASSLLSGVPSRFSGSGSGTDFTLTISSLQPEDFATYYCQQSYSTPYTFGQGTKLEIK
B4: A32 mAb (antibody, V domains shown)
VH: QVQLQESGPGLVKPSQTLSLSCTVSGGSSSSGAHYWSWIRQYPGKGLEWIGYIHYSGNTYYNPSLKSRITISQHTSENQFSLKLNSVTVADTAVYYCARGTRLRTLRNAFDIWGQGTMVTVSS
VL: VLTQPPSASGSPGQSVTISCTGTSSDVGGYNYVSWYQHHPGKAPKLIISEVNNRPSGVPDRFSGSKSGNTASLTVSGLQAEDEAEYYCSSYTDIHNFVFGGGTKLTVL
B5: C11 mAb (antibody, V domains shown)
VH: EVQLVESGGGLVKPGGSLRLSCAASGFTFSSYSMNWVRQAPGRGLEWVSSISNTSTYIYYADSVEGRFTLSRDNAKNSLYLQMNSLRAEDTAVYYCARANQHFDWLLSLLGGYHYYGMDVWGQGTTVTVSS
VL: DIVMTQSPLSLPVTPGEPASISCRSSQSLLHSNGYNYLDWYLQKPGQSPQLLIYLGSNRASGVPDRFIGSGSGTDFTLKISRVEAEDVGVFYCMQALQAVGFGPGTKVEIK
B6: DH677.3 mAb (antibody, V domains shown)
VH: QVQLVQSGAEVQKPGASVKVSCKASGYTFASYDINWVRQATGQGLEWMGWMNPKTGNTGYAQKFQGRVTLTRNTSISTAYMELTSLRSEDTAVYYCATYRIIAAVGYRYFQYWGQGTLVTVSS
VL: DIQLTQSPSSLSASVGDSVTITCRASQGFGNYLAWYQQRPGKVPEVLIYAATTLQSGVPSRFSGSGSGTDFTLTISSLQPEDVATYYCQKYNSAPFTFGQGTRLEIK
B7: C11 Fab (Fab, V domains shown)
VH: EVQLVESGGGLVKPGGSLRLSCAASGFTFSSYSMNWVRQAPGRGLEWVSSISNTSTYIYYADSVEGRFTLSRDNAKNSLYLQMNSLRAEDTAVYYCARANQHFDWLLSLLGGYHYYGMDVWGQGTTVTVSS
VL: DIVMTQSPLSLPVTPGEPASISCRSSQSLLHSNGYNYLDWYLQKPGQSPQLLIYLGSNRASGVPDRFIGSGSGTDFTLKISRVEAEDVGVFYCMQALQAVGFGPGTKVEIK

The target in one experiment is full-length monomeric gp120 (clade B, BaL strain) (HIV-1 clade B, strain BaL, UniProt Q2MKA8, strain). The experiment can be described thus: flow cytometry on cells. The conditions noted are these: one partner purified.
As to B1, the binding result was “binds”.
On to B2, for which the binding result is reported as “binds”.
B3: the binding result is on record as “binds”.
In the case of B4, the binding result is on record as “binds”.
For the molecule B5, the binding result is recorded as “binds”.
As for B6, the binding result was “binds”.

Another experiment deals with T1, full-length single-chain gp120BaL-CD4 complex (FLSC) (HIV-1 clade B, BaL (gp120 moiety); CD4 …, UniProt Q2MKA8, strain).
T1 construct: also called full-length single-chain protein
The experiment can be described thus: FRET or BRET + other: fluorescence correlation spectroscopy. The conditions noted are these: both partners purified.
Take B7: the binding result is “binds”.
